Assay [1] has as its system rat model of retinal damage induced by light exposure. As to the kind of experiment: Retinal protective effect in rat model of retinal damage induced by light exposure. The assay is classed as in vivo. The procedure: Rat models of retinal damage induced by light exposure are models that induce the cell death of retinal photoreceptor cells by light exposure and are universally used as model animals of retinal degeneration (Daniel T. Organisciak et al., (1996) Invest Ophthalmol Vis Sci. Vol. 37 (No. 11): p. 2243-2257). A 0.5% (W/V) tropicamide-0.5% phenylephrine hydrochloride ophthalmic solution was ocularly instilled under adaptation to darkness to rats adapted to darkness for 72 hours. Then, the rats were exposed to white light of 5500 Lux for 3 hours. The rats thus exposed were adapted again to darkness for about 24 hours and then raised for 2 days under light-dark conditions of ordinary raising. After euthanasia, the eyeballs were excised and fixed by dipping in a 3.7% (W/V) formaldehyde-0.5 to 1% (W/V) methanol-0.2% (W/V) picric acid fixative for 24 hours or longer. After paraffin embedding, thin sliced sections were prepared. The sections were stained with hematoxylin-eosin, and a nucleus count in an outer nuclear layer of a cross-section of the retina was determined to evaluate retinal damage.
Immediately before light exposure of rats, 5 μL of HTRA1-inhibiting peptide H308 having a concentration of 0.04 mg/mL or 0.2 mg/mL was intravitreally administered under anesthesia. n=4 for a normal saline administration group, and n=5 for the other groups.
The retinal protective effects of three HTRA1-inhibiting peptides prepared in Example 6 were evaluated using the rat models of retinal damage induced by light exposure, constructed in Example (5-1). The operation followed Example 5. n=6 for all groups.

Assay [2] concerns ARPE-19 cells (VEGF mRNA). As to the kind of experiment: VEGF mRNA induction test using human retinal pigment epithelial cells ARPE-19. The assay is classed as cell-based. The following applies: 1 μM peptide co-added with H2O2 500 μM, normal human serum complement 25% and HTRA1 1 μM; 4 hours. How it is done: ARPE-19 cells were cultured until confluent in 12 mm Transwell with […] Pore Polyester Membrane Insert, Sterile (Corning Inc.) under conditions of 37° C. and 5% CO2 using a DMEM/F-12 medium (Wako Pure Chemical Industries, Ltd.) containing 10% fetal bovine serum (FBS) and penicillin-streptomycin (Thermo Fisher Scientific Inc.). Then, the cells were cultured in FBS-free DMEM/F-12 for 5 days. H2O2 (final concentration: 500 μM) was added to the upper and lower layers of the chamber, and normal human serum complement (Quidel Corp.) (final concentration: 25%) was added to the upper layer of the chamber. […] Four hours later, the culture supernatant was removed, and the cells were washed with PBS. Then, mRNA was extracted using SuperPrep™ Cell Lysis & RT Kit for qPCR (Toyobo Co., Ltd.) and subjected to a reverse transcription reaction. The mRNA level of VEGF was quantitatively analyzed by TaqMan Gene Expression Assays (Hs000900055_m1 and Hs02786624_g1; Thermo Fisher Scientific Inc.) using a 7900HT Fast Real-Time PCR System (Applied Biosystems, Inc.). GAPDH was used in the correction of the mRNA level.

Assay [3] concerns human umbilical vein endothelial cells (HUVEC). Briefly: HUVEC migration test. Particulars: 300 nM in EGM growth medium; 2 hours. The assay is classed as cell-based. How it is done:
HUVEC (Kurabo Industries Ltd.) was cultured for 18 hours under conditions of 37° C. and 5% CO2 in a medium (0.1% BSA-containing serum-free EGM) in which EBM™-2 basal medium (Lonza Walkersville, Inc.) containing 0.1% BSA was supplemented with an EGM™-2 SingleQuots™ additive factor set except for serum and VEGF. Then, the cells were adjusted to 4×10^5 cells/mL with 0.1% BSA-containing serum-free EGM. 4×10^5 cells/mL of the HUVEC suspension was added at 50 μL/well to the upper layer of a chamber of a Corning FluoroBlok HTS 96 Well Multiwell Permeable Support System with a […] High Density PET Membrane (Corning Inc.) having a gelatin-coated membrane. Then, each sample described below (medium 1, 2 or 3) was added at 210 μL/well to the lower layer of the chamber (n=3). […]
A FluoroBlok HTS 96 Well Multiwell Support System supplemented with the cells and the sample was incubated for 2 hours under conditions of 37° C. and 5% CO2. […] The fluorescence intensity (excitation wavelength/fluorescence wavelength: 485 nm/535 nm) of each well was measured using a plate reader (ARVO-MX, PerkinElmer, Inc.), and the migrated cells were counted for each well according to the following expression. Migrated cells=Mean fluorescence intensity of wells containing HUVEC (n=3)—Mean fluorescence intensity of blank wells (n=3).

The subject of assay [4] is HFD-HQ-loaded 3-year-old rabbits. Briefly: Protective effect on RPE cells in rabbit retinal damage model (HFD-HQ loading). The assay is classed as in vivo. Particulars: 50 μL of 40 mg/mL intravitreally 2 months after start of HFD-HQ; evaluated at 4 months; vs normal saline fellow eye. The text has this:
Retinal damage models prepared using high-fat diet (HFD) and hydroquinone (HQ) are models in which oxidative stress is induced by a pro-oxidant to cause retinal damage. These models have been reported only for mice (Diego G. Espinosa-Heidmann et al., (2006) Invest Ophthalmol Vis Sci., Vol. 47 (No. 2): p. 729-737). Accordingly, 3-year-old JW rabbits were fed for 4 months with RC4 (Oriental Yeast Co., Ltd.) diet containing 1.5% (W/V) coconut oil-0.25% (W/V) cholesterol-1.5% (W/V) peanut oil-2.4% (W/V) hydroquinone (HFD-HQ) to construct rabbit retinal damage models. After euthanasia, the eyeballs were excised, and the anterior segment of the eye was removed by an external incision of about 5 mm from the corneal limbus. The vitreous body was further separated. Then, retina-choroid-sclera was fixed by dipping in 4% (W/V) paraformaldehyde fixative for 24 hours or longer. […] The stained choroid was observed under a fluorescence microscope (BZ-9000; Keyence Corp.). The area of stained retinal pigment epithelial (RPE) cells was determined to evaluate RPE cell damage.
The retinal protective effect of the HTRA1-inhibiting peptide H308 prepared in Example 1 was evaluated using the rabbit models. […]
After 4 months from the start of feeding, RPE cell hypertrophy in the model animals was evaluated. […]

Assay [5] deals with T1, HTRA1 (cat) (Homo sapiens, UniProt Q92743).
T1 construct: The protease domain (158Gly to 373Lys), which excludes the N-terminal domain and the PDZ domain; made in house; host or cells: E. coli BL21 (DE3)
T1 sequence (Q92743 158-373): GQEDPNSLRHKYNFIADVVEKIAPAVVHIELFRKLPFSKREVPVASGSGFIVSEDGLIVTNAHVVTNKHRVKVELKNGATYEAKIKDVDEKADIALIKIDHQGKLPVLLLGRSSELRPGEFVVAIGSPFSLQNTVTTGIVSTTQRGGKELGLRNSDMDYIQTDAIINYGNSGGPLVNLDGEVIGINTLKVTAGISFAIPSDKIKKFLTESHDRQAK
Briefly: HTRA1 (cat) inhibitory activity using peptide substrate H2-Opt (Example 3-1). It counts as biochemical. The following applies: decomposition rate of H2-Opt; borate buffer pH 8.5; peptide 1.875 to 1,000 nM. The procedure: A substrate peptide H2-Opt (Mca-IRRVSYSFK(Dnp)K) (SEQ ID NO:66) (Peptide Institute, Inc.: SEQ ID NO: 54, FIG. 8) was dissolved at 10 mM in DMSO, diluted with an assay buffer (50 mM borate and 150 mM NaCl, pH 8.5), and used at a final concentration of 10 μM. HTRA1 (HTRA1 (cat) or HTRA1 (full)) and each HTRA1-inhibiting peptide diluted with an assay buffer were mixed at 25 μL each and reacted at 37° C. for 20 minutes. Then, 50 μL of the substrate diluted with an assay buffer was added thereto. A fluorescent signal (excitation at 328 nm/emission at 393 nm) was measured using Enspire (PerkinElmer, Inc.). The final concentration of HTRA1 was 100 nM, and the final concentration of the HTRA1-inhibiting peptide was 1.875 to 1,000 nM. PROTEOSAV® SS96F black plate (Sumitomo Bakelite Co., Ltd.) was used in the reaction and the measurement.
The substrate peptide decomposition rate of the HTRA1-inhibiting peptide at each concentration was calculated. When the decomposition rate at an inhibitor concentration of 0 nM was defined as 100%, the HTRA1 (cat) and HTRA1 (full) inhibitory activity of each HTRA1-inhibiting peptide was evaluated (FIGS. 2 and 3).

[6] abbreviates: 0.2 and 1 μg/eye intravitreally, n=6.

Positions count from the first letter of the chain named. Names may count otherwise.

B1: H308_D1G_S16A: N-terminal derivative of H308, 1Asp substituted with Gly, with S16A, SEQ ID NO: 24 (FIG. 36) (protein)
chain: GPQFGLFSKYRTPNCADHAGMACVALYEPVCGSDMSTYENECVLCMKIREGGHNIKIIRNGPCGG
On to B1, for which the “nucleus count in an outer nuclear layer on a cross-section of the retina” value (shortened to “nucleus count in an outer nuclear layer”) in assay [1] (setting [6]) is reported as “suppressed a decrease in nucleus count in an outer nuclear layer”. For the same molecule, the “expression of VEGF mRNA” value in assay [2] is “confirmed to suppress the expression of VEGF”. Also, the “migration of HUVEC induced in serum-containing medium” value in assay [3] is on record as “suppressive effect on the migration of HUVEC”.

B2: H308: SPINK2 mutant HTRA1-inhibiting peptide, amino acid sequence SEQ ID NO: 9 (FIG. 21) (protein)
chain: B1 chain with G1D, A16S
On to B2, for which the “nucleus count in an outer nuclear layer” value in assay [1] (5 μL of 0.04 mg/mL or 0.2 mg/mL intravitreally immediately before light exposure, vs normal saline) is recorded as “effect of suppressing the decrease in nucleus count in an outer nuclear layer was confirmed”. In addition, in assay [4], the “hypertrophy of RPE cells: average area of RPE cells” value is “exhibited a suppressive effect on the hypertrophy of RPE cells” and the “hypertrophy of RPE cells: number of RPE cells having a cell area of 1500 μm^2 or larger” value was “exhibited a suppressive effect on the hypertrophy of RPE cells”.

B3: H321AT_D1G_S16A: HTRA1-inhibiting peptide derivative, amino acid sequence SEQ ID NO: 28 (FIG. 40) (protein)
chain: B1 chain with H18F, A19D, V24Y, L26F, E39A, V43T
B3: the “nucleus count in an outer nuclear layer” value in assay [1] (setting [6]) was “suppressed a decrease in nucleus count in an outer nuclear layer”.

B4: H322AT_D1G_S16A: HTRA1-inhibiting peptide derivative, amino acid sequence SEQ ID NO: 29 (FIG. 41) (protein)
chain: B1 chain with D17Q, A19E, V24Y, E39A, V43T
Take B4: the “nucleus count in an outer nuclear layer” value in assay [1] (setting [6]) is on record as “suppressed a decrease in nucleus count in an outer nuclear layer”.

B5: wild-type SPINK2: human serine protease inhibitor Kazal-type 2, 7 kDa, SEQ ID NO: 1 (FIG. 13); control (protein, listed as Homo sapiens)
chain: DPQFGLFSKYRTPNCSQYRLPGCPRHFNPVCGSDMSTYANECTLCMKIREGGHNIKIIRNGPC
In the case of B5, the “HTRA1 (cat) inhibitory activity (in words)” value in assay [5] is “exhibited no HTRA1 inhibitory activity”.

These data come from patent US11866472B2, “Peptide for treating retinitis pigmentosa” (DAIICHI SANKYO COMPANY, LIMITED, priority 2018, dated 2024).
